According to patent US20210252161A1 (Bayer, published 2021):

Target: T1, TPP-2614, TweakR-ECD-34-68-hIgGFc-His-D47A (human)
T1 construct: alanine-scan mutein; used as HEK293 supernatant
Experiment: ELISA, IgG coated at 1 µg/ml, 8-fold diluted HEK293 supernatant with the TWEAKR(34-68)-Fc mutein, anti-HIS-HRP, Amplex Red
Protocol: These TWEAKR(34-68) Fc muteins were expressed in HEK293 cells. To obtain dose-reaction data, IgGs were coated at a concentration of 1 μg/ml onto a 384-well Maxisorp ELISA plate, and a serial 2-fold dilution of the supernatant comprising the TWEAKR mutein was used as soluble binding partner. Detection was carried out using anti-HIS-HRP and Amplex Red.

B1: TPP-2090 (antibody, human IgG1, kappa, V domains shown)
VH: EVQLLESGGGLVQPGGSLRLSCAASGFTFSPYPMIWVRQAPGKGLEWVSYISPSGGSTHYADSVKGRFTISRDNSKNTLYLQMNSLRAEDTAVYYCARGGDTYFDYFDYWGQGTLVTVSS
VL: DIQMTQSPSSLSASVGDRVTITCRASQSISGYLNWYQQKPGKAPKLLIYQASSLQSGVPSRFSGSGSGTDFTLTISSLQPEDFATYYCQQSYTSPFITFGQGTKVEIKR
notes: human IgG1, anti-TWEAKR; biotinylated where used as soluble partner in the ELISAs
B1: no binding (tested: 8-fold diluted supernatant).
